Literature values as cited in article PMC6472351.
Values joined by “and” are separate entries in the source; they are usually repeats but may differ in a detail not shown here. Equal values may be shown once. Read-outs that look alike come from different tables or passages of the source.

What was measured:
[1] = biological target: Histone H3 (Homo sapiens) (UniProt P68431)
[2] = biological target: Histone H3 (Homo sapiens) (UniProt P68431); remark: listed apart in the source

| Substance | Kd [1] | Kd [2] |
| --- | --- | --- |
| DIDO PHD (from UniProt Q9BTC0) | 6 µM and 1 µM |  |
| GLP ankyrin (from UniProt Q9H9B1) |  | 5 µM and 7 µM |
